Data: publication PMC9108626, “Mammalian UPF3A and UPF3B can activate nonsense‐mediated mRNA decay independently of their exon junction complex binding” (The EMBO Journal, 2022)

Columns and labels:
Settings in all cases: partners not purified
[1] = molecular target: T1, EIF4A3 (endogenous, HeLa Tet‐off) (human (endogenous in HeLa), UniProt P38919 1-411); test: co-IP; EIF4A3-IP (IgG-IP as control) from HeLa Tet-off cells and 3B^KO#3 HeLa Tet-off cells, with overexpression of CASC3 wild type or the HDAA mutant; immunoblot
T1 construct: EIF4A3, human, endogenous in HeLa Tet-off cells; also called EJC; source: endogenous, lysate of HeLa Tet-off and 3B^KO#3 HeLa Tet-off cells
T1 sequence (P38919 whole entry): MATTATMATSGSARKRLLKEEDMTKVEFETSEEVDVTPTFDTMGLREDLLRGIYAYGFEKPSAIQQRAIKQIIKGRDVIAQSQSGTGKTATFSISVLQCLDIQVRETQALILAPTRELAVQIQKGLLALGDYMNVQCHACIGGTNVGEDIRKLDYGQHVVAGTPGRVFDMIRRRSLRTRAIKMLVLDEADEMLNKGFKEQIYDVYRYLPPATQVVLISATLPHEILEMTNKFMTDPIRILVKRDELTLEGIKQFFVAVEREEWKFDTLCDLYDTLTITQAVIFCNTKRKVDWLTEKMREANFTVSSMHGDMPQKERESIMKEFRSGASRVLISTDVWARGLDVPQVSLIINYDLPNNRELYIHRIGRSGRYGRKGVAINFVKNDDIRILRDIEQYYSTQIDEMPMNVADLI

[2] = molecular target: T2, EIF4A3 (endogenous, HCT116) (human (endogenous in HCT116), UniProt P38919 1-411); test: co-IP; EIF4A3-IP from 3^DKO#2 HCT116 cells stably expressing FLAG-tagged UPF3 proteins, UPF3A chimeras or EGFP; FLAG-tagged proteins quantified against EIF4A3; immunoblot
T2 construct: EIF4A3, human, core factor of the exon junction complex, endogenous in HCT116 cells; also called core EJC factor EIF4A3; source: endogenous, HCT116 lysate
T2 sequence (P38919 whole entry): as above

[3] = molecular target: T2, EIF4A3 (endogenous, HCT116); test: co-IP; EIF4A3-IP (antibody on protein-A Dynabeads; normal rabbit IgG as control) from WT and UPF3B mutant (3B^Δ2BD, 3B^KO) HCT116 lysates; 4°C, washes with 150 mM NaCl; immunoblot

Row | fold increase of co-IP upon overexpression of wild-type CASC3 [1] [fold] | Binder | also measured
1 | 2.6 | UPF3B (endogenous, HeLa Tet‐off) (natural protein, human (endogenous in HeLa), UniProt Q9BZI7 1-483, looked up, UPF3B, human, endogenous in HeLa Tet-off cells; source: endogenous, HeLa Tet-off lysate) MKEEKEHRPKEKRVTLLTPAGATGSGGGTSGDSSKGEDKQDRNKEKKEALSKVVIRRLPPTLTKEQLQEHLQPMPEHDYFEFFSNDTSLYPHMYARAYINFKNQEDIILFRDRFDGYVFLDNKGQEYPAIVEFAPFQKAAKKKTKKRDTKVGTIDDDPEYRKFLESYATDNEKMTSTPETLLEEIEAKNRELIAKKTTPLLSFLKNKQRMREEKREERRRREIERKRQREEERRKWKEEEKRKRKDIEKLKKIDRIPERDKLKDEPKIKVHRFLLQAVNQKNLLKKPEKGDEKELDKREKAKKLDKENLSDERASGQSCTLPKRSDSELKDEKPKRPEDESGRDYREREREYERDQERILRERERLKRQEEERRRQKERYEKEKTFKRKEEEMKKEKDTLRDKGKKAESTESIGSSEKTEKKEEVVKRDRIRNKDRPAMQLYQPGARSRNRLCPPDDSTKSGDSAAERKQESGISHRKEGGEE | –
2 | – | FLAG‐tagged human UPF3A (stably expressed in 3^DKO#2 cells) (natural protein, UniProt Q9H1J1 1-476, looked up, UPF3A, human, CCDS9543.1; wild type; domains are defined over residues 2-476; cloned in pcDNA3ez-FLAG and moved to a Tet-ON PiggyBac plasmid; also called hUPF3A; FLAG‐UPF3A) MRSEKEGAGGLRAAVAARGPSGREKLSALEVQFHRDSQQQEAETPPTSSSGCGGGAGKPREEKRTALSKVVIRRLPPGLTKEQLEEQLRPLPAHDYFEFFAADLSLYPHLYSRAYINFRNPDDILLFRDRFDGYIFLDSKGLEYPAVVEFAPFQKIAKKKLRKKDAKTGSIEDDPEYKKFLETYCVEEEKTSANPETLLGEMEAKTRELIARRTTPLLEYIKNRKLEKQRIREEKREERRRRELEKKRLREEEKRRRREEERCKKKETDKQKKIAEKEVRIKLLKKPEKGEEPTTEKPKERGEEIDTGGGKQESCAPGAVVKARPMEGSLEEPQETSHSGSDKEHRDVERSQEQESEAQRYHVDDGRRHRAHHEPERLSRRSEDEQRWGKGPGQDRGKKGSQDSGAPGEAMERLGRAQRCDDSPAPRKERLANKDRPALQLYDPGARFRARECGGNRRICKAEGSGTGPEKREEAE | fold weaker co-IP against UPF3B [2]: ~3 fold
3 | 3 | UPF3A (endogenous, UPF3B knockout HeLa Tet‐off) (natural protein, human (endogenous in HeLa), UniProt Q9H1J1 1-476, looked up, UPF3A, human, endogenous in HeLa Tet-off cells; source: endogenous, 3B^KO#3 HeLa Tet-off lysate) MRSEKEGAGGLRAAVAARGPSGREKLSALEVQFHRDSQQQEAETPPTSSSGCGGGAGKPREEKRTALSKVVIRRLPPGLTKEQLEEQLRPLPAHDYFEFFAADLSLYPHLYSRAYINFRNPDDILLFRDRFDGYIFLDSKGLEYPAVVEFAPFQKIAKKKLRKKDAKTGSIEDDPEYKKFLETYCVEEEKTSANPETLLGEMEAKTRELIARRTTPLLEYIKNRKLEKQRIREEKREERRRRELEKKRLREEEKRRRREEERCKKKETDKQKKIAEKEVRIKLLKKPEKGEEPTTEKPKERGEEIDTGGGKQESCAPGAVVKARPMEGSLEEPQETSHSGSDKEHRDVERSQEQESEAQRYHVDDGRRHRAHHEPERLSRRSEDEQRWGKGPGQDRGKKGSQDSGAPGEAMERLGRAQRCDDSPAPRKERLANKDRPALQLYDPGARFRARECGGNRRICKAEGSGTGPEKREEAE | –
4 | – | UPF3A (endogenous, HCT116) (natural protein, human (endogenous in HCT116), UniProt Q9H1J1 1-476, looked up, UPF3A, human, endogenous in HCT116 cells; source: endogenous, HCT116 lysate (WT, 3B^Δ2BD, 3B^KO cells)) MRSEKEGAGGLRAAVAARGPSGREKLSALEVQFHRDSQQQEAETPPTSSSGCGGGAGKPREEKRTALSKVVIRRLPPGLTKEQLEEQLRPLPAHDYFEFFAADLSLYPHLYSRAYINFRNPDDILLFRDRFDGYIFLDSKGLEYPAVVEFAPFQKIAKKKLRKKDAKTGSIEDDPEYKKFLETYCVEEEKTSANPETLLGEMEAKTRELIARRTTPLLEYIKNRKLEKQRIREEKREERRRRELEKKRLREEEKRRRREEERCKKKETDKQKKIAEKEVRIKLLKKPEKGEEPTTEKPKERGEEIDTGGGKQESCAPGAVVKARPMEGSLEEPQETSHSGSDKEHRDVERSQEQESEAQRYHVDDGRRHRAHHEPERLSRRSEDEQRWGKGPGQDRGKKGSQDSGAPGEAMERLGRAQRCDDSPAPRKERLANKDRPALQLYDPGARFRARECGGNRRICKAEGSGTGPEKREEAE | fold increase of co-IP in UPF3B mutant cells over WT cells [3]: ~2 fold
